Experiment [1] addresses T1, MAGE-A1 and a second family member (printed 'MRGE-A1/R4') peptide on HLA-DPB1*04:01 (human).
T1 peptide: QDLVQEKYLEY
The experiment can be described thus: cytokine release.

The target in experiment [2] is T2, MAGE-A3 peptide on HLA-DPB1*04:01 (human).
T2 peptide: KKLLTQHFVQENY
The experiment is described as follows: cytokine release.

B1: 6F9 TCR (TCR, V domains shown)
Valpha: AQTVTQSQPEMSVQEAETVTLSCTYDTSESDYYLFWYKQPPSRQMILVIRQEAYKQQNATENRFSVNFQKAAKSFSLKISDSQLGDAAMYFCALRSSGTYKYIFGTGTRLKVLA
Vbeta: GAGVSQSPSNKVTEKGKDVELRCDPISGHTALYWYRQSLGQGLEFLIYFQGNSAPDKSGLPSDRFSAERTGGSVSTLTIQRTQQEDSAVYLCASIRTGPFFSGNTIYFGEGSWLTVV
Take B1: the binding result in experiment [1] and in experiment [2] was “no recognition” throughout.

Source of the values: EP3636665A1 (dated 2020).
